From patent US20240270841A1 (LG CHEM, published 2024)
Residue numbers refer to the chain shown, from its start.

B1: anti-LILRB1 antibody G6 (antibody, human IgG4 S228P, V domains shown)
VH: EVQLVESGAEVKKPGASVKVSCKASGYTFTSYYMHWVRQAPGQGLEWMGGIIPIFGTANYAQKFQGRVTITADESTSTAYMELSSLRSEDTAVYYCARGWGYSSSFDYWGQGTTVTVSS
VL: SYELTQDPAVSVALGQTVTITCQGDSLRRYYATWYQQKPGQAPVLVIYGQNYRPSGIPDRFSGSNSGTTASLTITGAQAEDEADYYCNSRDSSGNHVVFGGGTKLTVLG
notes: human IgG4, lambda light chain; also called Antibody clone G6
B2: anti-LILRB1 antibody E4 (antibody, human IgG4 S228P, V domains shown)
VH: QVQLVQSGAEVKKPGSSVKVSCKASGGTFSSYTISWVRQAPGQGLEWMGRIIPILGIANYAQKFQGRVTMTRDMSTDTAYMELSSLTYDDTAVYFCVRGPSLNYAGYFDNWGQGTLVTVSS
VL: NFMLTQPHSVSESPGKTVTISCTRSSGSIASNYVQWYQQRPGSSPTTVIYEDNQRPSGVPDRFSGSIDSSSNSASLTISGLKTEDEADYYCQSYDTGNRNYVFGTGTQLTVLG
notes: human IgG4, lambda light chain; also called Antibody clone E4
B3: anti-LILRB1 antibody G1 (antibody, human IgG4 S228P, V domains shown)
VH: EVQLVQSGAEVKKPGSSVKVSCKASGGTFSSYGISWVRQAPGQGLEWMGWISAYNGNTNYAQELQGRVTMTTDTSTSTAYMELRSLRSDDTAVYYCARVGVAGKLDYWGQGTLVTVSS
VL: SYELTQPPSLSVSPGQTASITCSGYKLGDRYVSWYQQKTGQSPVVVIYKDSQRPSGVPERFSGSNSGNTATLTISGTQAMDEADYYCQAWDSGTGVFGGGTKLTVLG
notes: human IgG4, lambda light chain; also called Antibody clone G1
B4: anti-LILRB1 antibody A10 (antibody, human IgG4 S228P, V domains shown)
VH: QMQLVQSGAEVKKPGSSVKVSCKASGGTFSSYAISWVRQAPGQGLEWMGGIIPIFGTANYAQKFQGRVTITADKSISTAYMELSSLRSEDTAVYYCARGGLGELDNWFDPWGQGTLVTVSS
VL: DIVMTQSPATLSVSPGERATLSCRASQSVSSNLAWYQQKPGQAPRLLIYGASTRATGIPARFSGSGSGTEFTLTISSLQSEDFAVYYCQQYGSSPRMYTFGQGTKVDIKR
notes: human IgG4, kappa light chain; also called Antibody clone A10
B5: anti-LILRB1 antibody A11 (antibody, human IgG4 S228P, V domains shown)
VH: EVQLLESGGGLEQPGGFLRLSCAASGFSFTSYAMTWVRQAPGKGLEWVSGISSDGTTTTYADSVRGRFTISRDNAKNTVYLQMNSLRDEDTAVYYCARDQLLGWDALNVWGQGTMVTVSS
VL: not shown
notes: human IgG4, kappa light chain; also called Antibody clone A11
B6: anti-LILRB1 antibody D3 (antibody, human IgG4 S228P, V domains shown)
VH: EVQLLESGGGVVQPGRSLRLSCAASGSTFSSYAMSWVRQAPGKGLEWVSAISGSGGSTYYADSVKGRFTISRDNSKNTLYLQMNSLRAEDTAVYYCAKDRGSYGYYYGMDVWGQGTMVTVSS
VL: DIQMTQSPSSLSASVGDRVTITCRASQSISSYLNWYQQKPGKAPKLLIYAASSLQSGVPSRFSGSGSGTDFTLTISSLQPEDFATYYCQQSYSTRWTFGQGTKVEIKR
notes: human IgG4; also called Antibody clone D3
B7: anti-LILRB1 antibody E9 (antibody, human IgG4 S228P, V domains shown)
VH: QVQLVESGGGLVQPGRSLRLSCAASGFTFSSYGMHWVRQAPGKGLEWVANIKQDGSEKYYVDSVKGRFTISRDNAKNTLYLQMNSLRAEDTAVYYCAREDRIAAAGMRELDYWGQGTLVTVSS
VL: QSELTQLPSASETPGQRVTISCSGSSSNIGNNYVYWYQQLPGTAPKLLIYRNNQRPSGVPDRFSGSKSGTSASLAISGLRSEDEADYYCAAWDDSLSGWVFGGGTKLTVLG
notes: human IgG4, lambda light chain; also called Antibody clone E9
B8: anti-LILRB1 antibody F12 (antibody, human IgG4 S228P, V domains shown)
VH: QVQLVQSGAEVKKPGESLKISCKGSGYSFTSYWIGWVRQMPGKGLEWMGIIYPGDSDTRYSPSFQGQVTISADKSISTAYLQWSSLKASDTAMYYCASQYYDGGYYMDVWGQGTLVTVSS
VL: QSVLTQPASVSGSPGQSITISCAGTSSDIGDYDYVSWYQQHPGKTPKLMIYDVSRRPSGVPDRFSGSKSGNTASLTISGLQTEDEADYYCASYTSSSVVVFGGGTKLTVLG
notes: human IgG4, lambda light chain; also called Antibody clone F12
B9: anti-LILRB1 antibody G9 (antibody, human IgG4 S228P, V domains shown)
VH: B8 VH with S7P
VL: QSALTQPASVSGSPGQSITISCTGSSSDVGGYNYVSWYQQHPGKAPKLMIYDVSNRPSGVSDRFSGSKSGNMASLTISGLQAEDEADYYCSSYTGSSTLDVLFGGGTKLTVLG
notes: human IgG4, lambda light chain; also called Antibody clone G9
B10: anti-LILRB1 antibody E12 (antibody, human IgG4 S228P, V domains shown)
VH: QVQLVESGGGLVQPGGSLRLSCAASGFTFSSYAMHWVRQAPGKGLEWVAVISYDGSNKYYADSVKGRFTISRDNSKNTLYLQMNSLRAEDTAVYYCARERGSGMDVWGQGTLVTVSS
VL: SYELTQDPAVSVALGQTVRITCQGDSLRSYYASWYQQKSGQAPVLVIYGKEKRPSGIPDRFSGSSSGNTASLTITGARAEDEADYYCNSRGSTTDYMVFGGGTQLTVLG
notes: human IgG4, lambda light chain; also called Antibody clone E12
B11: anti-LILRB1 antibody D1 (antibody, human IgG4 S228P, V domains shown)
VH: EVQLVQSGAEVKKPGASVKVSCKASGYTFTSYGISWVRQAPGQGLEWMGWINPNSGGTNYAQKFQGRVTMTRDTSISTAYMELSRLRSDDTAVYYCASRGVDEGDYWGQGTMVTVSS
VL: ETTLTQSPAFMSATPGDKVNISCKASQDIDDDMNWYQQKPGEAAISIIQEASTLVPGIPPRFSGSGYGTDFTLTINNIESEDAAYYFCLQHDKFPYTFGQGTKLEIKR
notes: human IgG4, kappa light chain; also called Antibody clone D1
B12: anti-LILRB1 antibody E3 (antibody, human IgG4 S228P)
heavy: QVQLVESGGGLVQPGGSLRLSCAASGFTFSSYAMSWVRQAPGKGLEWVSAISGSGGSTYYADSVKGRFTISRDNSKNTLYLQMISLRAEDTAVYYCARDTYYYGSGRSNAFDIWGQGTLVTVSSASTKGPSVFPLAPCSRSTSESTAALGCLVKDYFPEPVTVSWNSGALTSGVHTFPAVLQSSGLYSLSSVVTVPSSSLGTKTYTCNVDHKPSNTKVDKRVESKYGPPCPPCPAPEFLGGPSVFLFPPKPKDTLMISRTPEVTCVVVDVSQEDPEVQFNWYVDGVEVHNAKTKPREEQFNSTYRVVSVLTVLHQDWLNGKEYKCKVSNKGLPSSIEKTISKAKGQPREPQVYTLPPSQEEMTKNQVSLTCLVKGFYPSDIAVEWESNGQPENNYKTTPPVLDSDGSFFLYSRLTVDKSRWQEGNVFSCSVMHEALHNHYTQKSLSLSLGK
light: SYELTQDPAVSVALGQTVRITCQGDSLRNFYASWYQQKSGQAPVLVMYGKNNRPSGIPDRFSGSTSGNTASLTITGAQAEDEADYYCNSRDSSGSHLTGVFGGGTKVTVLGQPAAAPSVTLFPPSSEELQANKATLVCLISDFYPGAVTVAWKADSSPVKAGVETTTPSKQSNNKYAASSYLSLTPEQWKSHRSYSCQVTHEGSTVEKTVAPTECS
notes: human IgG4, lambda light chain; also called Antibody clone E3
B13: anti-LILRB1 antibody F11 (antibody, human IgG4 S228P, V domains shown)
VH: EVQLVESGGGLVQPGGSLKLSCAASGFTFSSYAMSWVRRAPGKGLEWVSTISGSGDSTYYADSVKGRFTISRDNSKNTLYLQMNNLRAEDTAVYYCAREWELGDAFDIWGRGTLVTVSS
VL: QSVLTQPPSTSGTPGQTFSIFCSGSSSNIGTNTVNWYQQLPGTAPKLLIYSNDQRPSGVPDRFSGSKSGTSASLAISGLQSEDEADYYCETWDDSLKGPVFGGGTKVTVLG
notes: human IgG4, lambda light chain; also called Antibody clone F11
B14: anti-LILRB1 antibody B12 (antibody, V domains shown)
VH: QVQLVQSGAEVKKPGASVKVSCKASGYTFTGYYMHWVRQAPGQGLEWMGWINPNSGGTNYAQKFQGRVTITADESTSTAYMELSSLRSEDTAVYYCTRAGASIVGATALDYWGQGTLVTVSS
VL: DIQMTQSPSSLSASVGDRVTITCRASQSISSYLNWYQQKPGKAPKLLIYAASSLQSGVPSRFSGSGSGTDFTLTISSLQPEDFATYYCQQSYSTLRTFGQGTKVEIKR
notes: human IgG4, kappa light chain; also called Antibody clone B12
B15: anti-LILRB1 antibody E6 (antibody, human IgG4 S228P, V domains shown)
VH: QVQLVQSGAEVKKPGASVKVSCKASGYTFTTYDITWVRQAPGQGLEWMGWMNPNSGNSRSAQKFQGRVSMTSDSSISTAYMELSSLRSEDTAVYYCATGDYSGVVLTATALDYWGQGTLVTVSS
VL: NFMLTQPHSVSESPGKTVTLSCTGSSGNIASNYVQWYQHRPGSAPTTVIYRDDQRPSGVPDRFSGSIDSSSNSASLTISGLRPEDEADYYCQSYDSSSWVFGGGTKLTVLG
notes: human IgG4, lambda light chain; also called Antibody clone E6
B16: anti-LILRB1 antibody B9 (antibody, V domains shown)
VH: QVQLVESGAEVKKPGSSVKVSCKASGGTFSSYAISWVRQAPGQGLEWMGGIIPIFGTANYAQKFQGRVTITADESTSTAYMELSSLRSEDTAVYYCARGEIAVAQNWDYYGMDVWGQGTLVTVSS
VL: DIQMTQSPSSLSASVGDRVTITCRASQSISRYLNWYQQKPGKAPKLLIYGASSLQSGVPSRFSGSGSGTDFTLTISSLQPEDFATYHCQQAYGFPLTLGGGTKVEIKR
notes: human IgG4, kappa light chain; also called Antibody clone B9
B17: anti-LILRB1 antibody B3 (antibody, human IgG4 S228P, V domains shown)
VH: EVQLLESGGGLVQPGRSLRLSCAASGFTFDDYAMHWVRQAPGKGLEWVSGISWNSGSIGYADSVKGRFTISRDNSKNTLYLQMNSLRAEDTAVYYCARVGDSSGWSDAFDIWGQGTMVTVSS
VL: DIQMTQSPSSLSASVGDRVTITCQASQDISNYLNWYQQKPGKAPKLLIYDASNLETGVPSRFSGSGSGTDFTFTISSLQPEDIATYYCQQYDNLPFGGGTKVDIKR
notes: human IgG4, kappa light chain; also called Antibody clone B3

Legend:
[1] = target: T1, human LILRB1 protein (LILRB1-His, RnD systems Cat. No. 8989-T2) (human, UniProt Q8NHL6 24-458); assay: SPR (Biacore T200), antibody captured by anti-human IgG (Fc), LILRB1-His injected
T1 construct: Bought protein; also called human LILRB1-His; not shown: His tag
T1 sequence (Q8NHL6 24-458 limits assumed): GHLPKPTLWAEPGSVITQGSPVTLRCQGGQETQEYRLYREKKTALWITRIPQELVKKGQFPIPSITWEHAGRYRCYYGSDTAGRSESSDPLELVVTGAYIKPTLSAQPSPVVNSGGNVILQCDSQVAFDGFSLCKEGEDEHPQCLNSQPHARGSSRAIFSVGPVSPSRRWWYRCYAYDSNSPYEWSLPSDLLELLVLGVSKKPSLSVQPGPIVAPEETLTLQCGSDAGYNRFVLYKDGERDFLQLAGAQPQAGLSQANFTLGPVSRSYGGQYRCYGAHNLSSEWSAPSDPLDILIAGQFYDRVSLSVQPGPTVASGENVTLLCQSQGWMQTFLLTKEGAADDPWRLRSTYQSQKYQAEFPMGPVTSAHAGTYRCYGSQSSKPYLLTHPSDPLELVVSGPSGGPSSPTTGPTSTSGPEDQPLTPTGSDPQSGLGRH
Protocol: The binding affinities of the 93 antibodies, which were selected in Example 1.3, to the antigen, LILRB1, were measured using Biacore T200 (GE healthcare). An anti-human IgG (Fc) antibody (GE healthcare, Cat. No. BR-1008-39, final concentration of 25 μg/mL) was flowed at the flow rate of 5 μL/min for 360 seconds to be immobilized at 5000-7000 RU on Series S Sensor Chip CM5 (GE healthcare, Cat. No. BR-1005-30) using Amine Coupling Kit (GE healthcare, Cat. No. BR-1000-508).

[2] = target: T2, LILRB1 expressed on the surface of human natural killer cell KHYG-1 (human, UniProt Q8NHL6 24-650); assay: flow cytometry (iQue) on KHYG-1 NK cells, antibody 50 ug/mL
T2 construct: whole, on cells; also called LILRB1 on KHYG-1 cells; human NK cells (surface)
T2 sequence (Q8NHL6 24-650): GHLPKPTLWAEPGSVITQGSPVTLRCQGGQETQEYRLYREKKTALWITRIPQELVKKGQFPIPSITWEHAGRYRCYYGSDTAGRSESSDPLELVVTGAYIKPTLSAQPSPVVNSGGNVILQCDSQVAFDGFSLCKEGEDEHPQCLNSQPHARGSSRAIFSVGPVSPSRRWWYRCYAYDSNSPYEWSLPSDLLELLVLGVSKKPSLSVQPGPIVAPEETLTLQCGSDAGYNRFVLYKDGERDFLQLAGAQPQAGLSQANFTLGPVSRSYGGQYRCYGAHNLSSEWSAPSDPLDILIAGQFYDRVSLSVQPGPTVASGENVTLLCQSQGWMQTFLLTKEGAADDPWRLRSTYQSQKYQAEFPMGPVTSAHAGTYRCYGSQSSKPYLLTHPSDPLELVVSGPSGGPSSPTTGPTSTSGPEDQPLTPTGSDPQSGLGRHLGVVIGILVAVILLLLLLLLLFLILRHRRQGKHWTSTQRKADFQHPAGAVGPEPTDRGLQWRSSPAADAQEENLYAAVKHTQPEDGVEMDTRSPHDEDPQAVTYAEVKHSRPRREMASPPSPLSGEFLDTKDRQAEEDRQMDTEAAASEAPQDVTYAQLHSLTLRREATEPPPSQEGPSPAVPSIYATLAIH
Protocol: In order to test whether or not 93 antibodies selected in Example 1.4 bind LILRB1 expressed on surface of immune cells, natural killer cell (NK cell) surface binding assay was performed. A human NK cell, KHYG-1 cell (JCRB) was cultured in RPMI 1640 medium (Gibco) supplemented with 10%(w/v) of FBS (Gibco) and 100 U/mL of interleukin-2 (Novartis). KHYG-1 cells were added to a U-bottom 96-well tissue culture plate (BD Falcon) at the amount of 5×10⁴ cells/well. Each of the selected antibodies was added to the well to the final concentration of 50 μg/mL per well and incubated at 4° C. for 1 hour.
In order to see the level of LILRB1-specific binding of the selected antibodies, a human IgG4 isotype control antibody (Biolegend) was treated in the same manner. After washing with FACS buffer, the cells were treated with an anti-human Fc-biotin antibody (life technologies) and incubated at 4° C. for 1 hour. After washing with FACS buffer, the cells were treated with streptavidin PE (BD Pharmigen) and incubated at 4° C. for 30 minutes. After washing with FACS buffer, the cells were resuspended and subjected to analysis using iQue screener (Sartorius).

Row | Binder | Kd [1] | koff [1] | kon [1] | % of population 2 [2] | Mean Fluorescence Intensity [2]
1 | B1 | 0.0591 µM | 0.0152 s⁻¹ | 258000 M⁻¹ s⁻¹ |  | 
2 | B2 | 0.0726 µM | 0.000773 s⁻¹ | 10600 M⁻¹ s⁻¹ | 43.2% | 272000
3 | B3 | 0.00328 µM | 0.00142 s⁻¹ | 433000 M⁻¹ s⁻¹ | 56.2% | 321000
4 | B4 | 0.152 µM | 0.00765 s⁻¹ | 50400 M⁻¹ s⁻¹ | 28.7% | 223000
5 | B5 | 5.45 µM | 0.000981 s⁻¹ | 180 M⁻¹ s⁻¹ |  | 
6 | B6 | 0.18 µM | 0.000558 s⁻¹ | 3110 M⁻¹ s⁻¹ |  | 
7 | B7 | 0.0999 µM | 0.00105 s⁻¹ | 10500 M⁻¹ s⁻¹ |  | 
8 | B8 | 0.00346 µM | 0.000973 s⁻¹ | 281000 M⁻¹ s⁻¹ | 38% | 262000
9 | B9 | 0.00305 µM | 0.000436 s⁻¹ | 143000 M⁻¹ s⁻¹ | 41.3% | 263000
10 | B10 | 0.044 µM | 0.0103 s⁻¹ | 233000 M⁻¹ s⁻¹ |  | 
11 | B11 | 0.0493 µM | 0.00574 s⁻¹ | 116000 M⁻¹ s⁻¹ |  | 
12 | B12 | 0.101 µM | 0.0035 s⁻¹ | 34600 M⁻¹ s⁻¹ | 40.2% | 269000
13 | B13 | 0.00226 µM | 0.000615 s⁻¹ | 272000 M⁻¹ s⁻¹ |  | 
14 | B14 | 0.00784 µM | 0.00144 s⁻¹ | 184000 M⁻¹ s⁻¹ |  | 
15 | B15 | 0.0607 µM | 0.00163 s⁻¹ | 26800 M⁻¹ s⁻¹ |  | 
16 | B16 | 0.0661 µM | 0.000616 s⁻¹ | 9320 M⁻¹ s⁻¹ |  | 
17 | B17 | 0.0998 µM | 0.00149 s⁻¹ | 14900 M⁻¹ s⁻¹ |  | 
